Test results as given in PMC7948961, “Proteomic identification and validation of novel interactions of the putative tumor suppressor PRELP with membrane proteins including IGFI-R and p75NTR” (The Journal of Biological Chemistry, 2021).

B1: Recombinant PRELP (rPRELP), human PRELP with a C-terminal FLAG tag, from Mimic Sf9 cells (natural protein, UniProt P51888 21-382, looked up)
chain: QPTRRPRPGTGPGRRPRPRPRPTPSFPQPDEPAEPTDLPPPLPPGPPSIFPDCPRECYCPPDFPSALYCDSRNLRKVPVIPPRIHYLYLQNNFITELPVESFQNATGLRWINLDNNRIRKIDQRVLEKLPGLVFLYMEKNQLEEVPSALPRNLEQLRLSQNHISRIPPGVFSKLENLLLLDLQHNRLSDGVFKPDTFHGLKNLMQLNLAHNILRKMPPRVPTAIHQLYLDSNKIETIPNGYFKSFPNLAFIRLNYNKLTDRGLPKNSFNISNLLVLHLSHNRISSVPAINNRLEHLYLNNNSIEKINGTQICPNDLVAFHDFSSDLENVPHLRYLRLDGNYLKPPIPLDLMMCFRLLQSVVI
notes: Proline and arginine-rich end leucine-rich repeat protein (PRELP), human; secreted into the supernatant; No cleavage of the FLAG tag is described; source: Mimic Sf9 (baculovirus), purified from the supernatant (DDDDK-tagged Protein Purification Gel twice, Benzonase, SEC)

Experiments:
[1] = molecular target: B1; assay: SPR; Biacore 2000; rPRELP immobilised by amine coupling on CM5 at around 4000 RU; rsIGFI-R or rsp75NTR injected at 30 μl/min; 10 mM HEPES pH 7.5, 150 mM NaCl, 0.05% Tween-20, 15 °C; KD from fitting the equilibrium curve, three independent measurements; details: both partners purified
[2] = molecular target: T1, Recombinant, soluble IGFI-R (rsIGFI-R), extracellular domain of human IGFI-R (residues 1-905) with a … (human, UniProt P08069 31-935); assay: as above; details: both partners purified
T1 construct: Insulin-like growth factor 1 receptor, human, extracellular domain, residues 1-905; 31-935 of the precursor P08069; also called extracellular domain of IGFI-R; source: ExpiCHO, transiently transfected, purified from the supernatant (Ni-NTA, SEC)

| Binder | Kd [1] [µM] | Kd [2] [µM] |
| --- | --- | --- |
| Recombinant, soluble p75NTR (rsp75NTR), extracellular domain of human p75NTR (residues 1-161) with a C-terminal hexahistidine tag (domain or fragment, Printed residues 1-161 are read as mature numbering (signal 1-28, offset +28): 161+28=189 falls at the end of the fourth cysteine-rich repeat, and the same paper's IGFI-R 1-905 is mature numbering …) KEACPTGLYTHSGECCKACNLGEGVAQPCGANQTVCEPCLDSVTFSDVVSATEPCKPCTECVGLQSMSAPCVEADDAVCRCAYGYYQDETTGRCEACRVCEAGSGLVFSCQDKQNTVCEECPDGTYSDEANHVDPCLPCTVCEDTERQLRECTRWADAECE | 12.1 | – |
| B1 | – | 6.8 |
